Assay [1] concerns the target E5-tagged Fcγ receptor IIIa, V158 variant (human). Description: SPR.
The target in assay [2] is E5-tagged FcγRIIIa V158, produced in CHO cells (human). Description: SPR. On the technique in general: SPR reads the build-up and loss of mass on a sensor chip optically.
E5-tagged FcγRIIIa V158, produced in CHO cells (human), sequence (P08637 17-208): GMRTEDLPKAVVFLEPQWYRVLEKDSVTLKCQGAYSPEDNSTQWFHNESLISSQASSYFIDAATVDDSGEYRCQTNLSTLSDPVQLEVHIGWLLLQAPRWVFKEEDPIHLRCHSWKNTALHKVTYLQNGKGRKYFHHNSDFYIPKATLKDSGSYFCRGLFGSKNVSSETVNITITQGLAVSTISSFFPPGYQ

E5-tagged Fcγ receptor IIIa, V158 variant (human), sequence (P08637 17-208, change not shown): as the sequence (P08637 17-208) above

In turn, “Trastuzumab co-expressed with β1,4-galactosyltransferase 1 (TZM GT) (antibody)” displayed a fold increase in affinity upon digalactosylation, relative to TZM in assay [1] of 2 fold.

Regarding “Trastuzumab co-expressed with β4GT1 and RMD, in vitro α2,6-sialylated (antibody)”, the Kd in assay [2] stood at 32 nM.

For orientation: Kd means the free concentration of one partner at which half of the binding sites on the other are occupied at equilibrium, for simple one-to-one binding. A higher Kd goes with lower affinity.

The values above are taken from paper PMC9040152.
